In this data set the target is T1, rSsp2 SM101 (Clostridium perfringens SM101 (type A), UniProt P21886 1-59).
T1 sequence: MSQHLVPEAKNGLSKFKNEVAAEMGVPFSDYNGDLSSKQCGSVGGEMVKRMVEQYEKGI
Briefly: EMSA; glutaraldehyde-fixed; preferred probe. The following applies: protein: recombinant; tags: His6; label: 3'-biotin; blunt. For orientation: Mobility shift assays separate free from complexed probe on a gel.

B1: GC-rich probe (69.1% GC), Label-D2/Label-R2 (dsDNA)
DNA 1: CTGGCGACTCAGAAGGGGCTCGAACCCTCGACCTCCGGCGTGACAGGCCGGCACT
DNA 2: AGTGCCGGCCTGTCACGCCGGAGGTCGAGGGTTCGAGCCCCTTCTGAGTCGCCAG
In the case of B1, the binding result was “binds”.

For the origin of these results see publication PMC2706996.
